For orientation: Kd means the constant that tells how readily two partners part at equilibrium.

The results in this text go back to patent US20250101091A1 (Eli Lilly, published 2025).

The target of one assay is T1, EGF (human, UniProt P01133 971-1023).
T1 construct: Bought reagent, biotinylated in the ELISA; also called epidermal growth factor
Put plainly: ELISA: biotinylated ligand (20 nM) captured on neutravidin plate, antibody titrated 1:3, anti-human kappa-AP detection, OD405 [panel A]. A general note: In an ELISA, binding on a coated surface is turned into a signal by an enzyme label.

Another assay deals with T2, TGFα (human, UniProt P01135 40-89).
T2 construct: Bought reagent, biotinylated in the ELISA; also called TGFA; transforming growth factor alpha
The assay is described as above.

The next assay deals with T3, HB-EGF (human, UniProt Q99075 63-148).
T3 construct: Bought reagent, biotinylated in the ELISA
The assay is described as above.

The target of a further assay is T4, Betacellulin (human, UniProt P35070 32-111).
T4 construct: Bought reagent, biotinylated in the ELISA; also called BTC
T4 sequence (looked up): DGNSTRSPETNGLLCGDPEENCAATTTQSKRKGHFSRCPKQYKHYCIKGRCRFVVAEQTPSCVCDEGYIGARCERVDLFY
The assay is described as above.

The target of another assay is T5, Amphiregulin (human, UniProt P15514 101-198).
T5 construct: Bought reagent, biotinylated in the ELISA; also called AREG
T5 sequence (looked up): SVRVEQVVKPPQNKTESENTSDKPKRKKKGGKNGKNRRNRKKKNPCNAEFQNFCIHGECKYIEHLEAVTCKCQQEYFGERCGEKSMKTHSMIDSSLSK
The assay is described as above.

A further assay addresses T6, human Epigen (human, UniProt Q6UW88 53-104, limits assumed).
T6 construct: Bought reagent, biotinylated in the ELISA; also called EPGN
Described as above.

In assay [1] the target is T7, Cleaved rat epiregulin (rat, UniProt Q9Z0L5 56-101). Description: cell-based or functional assay.
The target in assay [2] is T7, Cleaved rat epiregulin. Description: MSD-SET solution equilibrium titration, 37 C, pH 7.4.
Method: (§1) An MSD SI6000 instrument (Meso Scale Discovery, Rockville, MD) is used for reading MSD plates. MSD assay plates are prepared as follows. A multi-array 96-well plate (Meso Scale Discovery, P/N L15XA-3) is coated overnight at 2-8° C. with 30 μl of a 1 μg/ml solution of a monomeric Fc-human epiregulin fusion in PBS. Plates are washed 3× in PBST following coating, then blocked for 1 hour at room temperature with shaking in 3% Blocker A (diluted in PBS from 5% Blocker A, Meso Scale Discovery, P/N R93AA-1).
(§2) SET samples are prepared in 1% Blocker A at pH 6.0 and at pH 7.4. Antibody is diluted to either 20 and 200 μM (pH 7.4) or 200 μM and 2 nM (pH 6.0). Epiregulin is serially diluted for a total of 12 dilutions centered around 2× the antibody concentration. This is accomplished by using starting concentrations of 10 and 100 nM (pH 7.4) or 100 nM and 1000 nM (pH 6.0) which are then 10× diluted once, 2× serially diluted 9 times, and then 10× diluted for the final dilution. Epiregulin titrations and fixed concentration antibody solutions are combined 1:1 to prepare the SET solutions. SET solutions are incubated at 37° C. for approximately 96 hours to allow binding to reach equilibrium. […] The plate is then washed 3× with PBST, then 100 μl of 1× Read Buffer T (diluted in water from 4× Read Buffer T, Meso Scale Discovery, P/N R93AA-1) is added before reading the plate. […]
Assay [3] concerns the target T7, Cleaved rat epiregulin. Put plainly: MSD-SET solution equilibrium titration, 37 C, pH 6.0.
Method: as §1, §2

Method for Amphiregulin: (§3) ELISA assays can be run as follows. […] After blocking, plates are washed 3 times with PBS plus 0.05% Tween20 to remove residual blocking buffer. […] Ligands are transferred to blocked assay plate and incubated at room temperature for 1 hour. The assay plate is washed 3 times with PBS plus 0.05% Tween20. […] The assay plate is washed 3 times with PBS plus 0.05% Tween20. […] The assay plate is washed 3 times with PBS plus 0.05% Tween20.
Method for Betacellulin: as §3
Method for HB-EGF: as §3
Method for TGFα: as §3
Method for human Epigen: as §3

B1: Antibody 1 (antibody, human IgG4 S228P, kappa, F234A L235A, V domains shown)
VH: QVQLQESGPGLVKPSETLSLTCTVSGGSISSYYWSWIRQPAGKGLEWIGRIYPSGNTNYNPSLKSRVTISVDTSKNQFSLKLSSVTAADTAVYYCARGGLVMDVWGQGTLVTVSS
VL: EIVLTQSPGTLSLSPGERATLSCRASQSVEFSYLAWYQQKPGQAPRLLIYGASSRATGIPDRFSGSGSGTDFTLTISRLEPEDFAVYYCHQYGTNPFTFGQGTKVEIKR
notes: Fully human IgG4 (S228P, F234A/L235A by EU index, C-terminal Lys deleted), kappa light chain
Consider B1, for which the binding result with EGF, in the assay with TGFα, in the assay with HB-EGF, with Betacellulin, with Amphiregulin and with human Epigen was “no binding (tested: 10 ug/mL)” in each case. In the assay with Cleaved rat epiregulin [1], the “IC50, neutralization of epiregulin induced luciferase reporter activity in C166-AP1-Luciferase cells” value is 2.5 nM. Further, the Kd is 0.0302 nM with Cleaved rat epiregulin [2] and 0.286 nM with Cleaved rat epiregulin [3].
